2 molecules from PMC7526551 (JCI Insight, 2020) can be followed below.

To fix the notation:
B1: NUPR1 (recombinant, purified) (natural protein, UniProt O60356 1-82, looked up)
chain: MATFPPATSAPQQPPGPEDEDSSLDESDLYSLAHSYLGGGGRKGRTKREAAANTNRPSPGGHERKLVTKLQNSERKKRGARR
notes: Nuclear Protein 1 (NUPR1), described as an intrinsically disordered protein of 82 amino acids with two tyrosines (Tyr30, Tyr36); also called Nuclear Protein 1; rNUPR1; source: expressed and purified as described (12)
B2: importin-α3 (residues 1–520), recombinant (domain or fragment, UniProt O00629 1-520, looked up)
chain: MADNEKLDNQRLKNFKNKGRDLETMRRQRNEVVVELRKNKRDEHLLKRRNVPHEDICEDSDIDGDYRVQNTSLEAIVQNASSDNQGIQLSAVQAARKLLSSDRNPPIDDLIKSGILPILVHCLERDDNPSLQFEAAWALTNIASGTSEQTQAVVQSNAVPLFLRLLHSPHQNVCEQAVWALGNIIGDGPQCRDYVISLGVVKPLLSFISPSIPITFLRNVTWVMVNLCRHKDPPPPMETIQEILPALCVLIHHTDVNILVDTVWALSYLTDAGNEQIQMVIDSGIVPHLVPLLSHQEVKVQTAALRAVGNIVTGTDEQTQVVLNCDALSHFPALLTHPKEKINKEAVWFLSNITAGNQQQVQAVIDANLVPMIIHLLDKGDFGTQKEAAWAISNLTISGRKDQVAYLIQQNVIPPFCNLLTVKDAQVVQVVLDGLSNILKMAEDEAETIGNLIEECGGLEKIEQLQNHENEDIYKLAYEIIDQFFSSDDIDEDPSLVPEAIQGGTFGFNSSANVPTEGFQ
notes: importin-α3 (KPNA4), residues 1–520, codon-optimized synthetic vector (Nzytech); called a 58 kDa protein with 6 tryptophans; also called KPNA4; importin-alpha3; source: final Superdex G200 16/60

The target of assay [1] is B2. The experiment in a line: ITC; importin-α3 (100–110 μM) in the syringe, NUPR1 (5–10 μM) in the calorimetric cell, Tris 50 mM pH 8, 25°C; single binding site model (1:1). The conditions noted are these: both partners purified.
In assay [2] the target is B2. The experiment in a line: ITC; as a3 with ZZW-115 kept constant at 100 μM during the titration; analysed as an apparent quasibinary system and as an exact ternary system; 25°C. The conditions noted are these: both partners purified. In general terms: Isothermal titration calorimetry measures the heat released or taken up as one component is titrated into another.
Assay [3] deals with B1. The experiment in a line: ITC; importin-α3 (100–110 μM) in the syringe, NUPR1 (5–10 μM) in the calorimetric cell, Tris 50 mM pH 8, 25°C; single binding site model (1:1). As to conditions: both partners purified.
Assay [4] has as its target T1, NUPR1 (recombinant, purified) (UniProt O60356 1-82).
T1 chain: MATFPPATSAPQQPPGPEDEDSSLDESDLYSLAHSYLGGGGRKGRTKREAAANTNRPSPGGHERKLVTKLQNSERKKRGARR
The experiment in a line: ITC; 25°C, with ZZW-115.

Assay [5] concerns the target B1. The experiment in a line: ITC; as a3 with ZZW-115 kept constant at 100 μM during the titration; analysed as an apparent quasibinary system and as an exact ternary system; 25°C. The conditions noted are these: both partners purified.

Take B1: the Ka in assay [1] was determined as 690000 M⁻¹. Further, the figures for the Kd in assay [1] and in assay [2] were 1.4 µM and 35 µM, respectively.

B2: the dH in assay [3] was -13.7 kcal/mol. In addition, the Ka in assay [4] turned out to be 28000 M⁻¹. Also, in assay [5], the “fold reduction in affinity with 100 μM ZZW-115 (ternary equilibrium analysis)” value stood at 21 fold.
